Measurements: patent US11452764B2, “Inhibiting FAK-AKT interaction to inhibit metastasis” (Board of Trustees of Michigan State University, priority 2017, dated 2022)
Each block holds one molecule with its values, some of them ahead of it.

Columns and labels:
Akt1 [1] = target: T1, Akt1 (Homo sapiens, UniProt P31749); assay: GST-FAK truncation/mutant fusion protein pull-down of Akt1 (cell lysate or purified Akt1); assay type: binding; set-up: endogenous in cells; host or cells: Caco-2 or SW620 cell lysate; conditions: for Akt1 pulled down by GST-FAK truncations: GST pull-down, N=4, p<0.05
Description: (§1) Glutathione-Sepharose 4B beads (15 μl) were washed twice in ice-cold PBS and resuspended in 400 μl PBS. Bacterial lysate containing GST-Akt1, GST-FAK-NT1 (truncations), or GST proteins (gift of Dr. J. Chen) were then added in excess and incubated with the beads for 1 h. Glutathione-Sepharose 4B beads coupled to GST-Akt1, GST-FAK (truncations), or GST were then washed twice with PBS by centrifuge for 5 min at 500 g and incubated with nontransfected or transfected Caco-2 cell lysates (600-800 μg protein) overnight at 4° C. Transfected Caco-2 cells received plasmids encoding HA-WT-FAK or HA-FRNK. Nontransfected and transfected Caco-2 cell lysates were prepared in cell lysis buffer lysis buffer [50 mM Tris (pH 7.4), 150 mM NaCl, 1% Triton X-100, 1% sodium deoxycholate, 0.1% SDS, 1 mM EDTA, 1 mM phenylmethylsulfonyl fluoride, 1 mM Na3VO4, 50 mM NaF, 10 mM sodium pyrophosphate, […] (pH 7.4)]. Following incubation, beads were washed twice with lysis buffer without SDS and protease inhibitors. Proteins were eluted with Laemmli SDS sample dilution buffer, separated by 10% SDS-PAGE, and immunoblotted with GST, Akt1 (Cell Signaling Technology, Danvers, Mass.), or HA monoclonal antibodies (Covance, Chantilly, Va.).
In some cases Glutathione-Sepharose-4B beads (30 μl) (GE Healthcare Life Science, Pittsburgh, Pa.) were conjugated with GST (expressed protein from a 250 μl bacterial pellet per 30 μl of beads) or recombinant GST-tagged (expressed protein from a 3 ml bacterial pellet per 30 μl of beads) (24) and incubated with lysate from 2×10^7 Caco-2 or SW620 cells (1500 μg protein) or purified Akt1 (0.35 μg) (Origene, Rockville, Md.) overnight at 4° C. […]
Protein concentrations were determined by bicinchoninic acid (BCA) protein assay (Pierce, Rockford, Ill.). […] Membranes were visualized by the infrared fluorescent IRDye system (LI-COR Biosciences, Lincoln, Nebr.) and analyzed on an Odyssey scanner (LI-COR Biosciences, Lincoln, Nebr.) within the linear range. […]

Akt1 [2] = target: T1, Akt1; assay: GST-Akt1 pull-down of HA-tagged wild type FAK or FRNK from transfected Caco-2 cell lysate; assay type: binding; set-up: made in house; host or cells: bacteria (pGEX-4T1; E. coli BL21 is printed only for the GST-FAK fusions); conditions: lysate of transiently transfected Caco-2 cells; 1 of 2 similar experiments
Description: as §1, with “Va.). […]” for “Va.).”

CT-26 cells = assay: Pressure-induced adhesion of CT-26 cells inducibly expressing GFP-FAK-NT1; assay type: cell-based, murine
Description: A stable CT-26 cell line was generated per ARIAD-ARGENT protocols and GFP-FAK-NT1 expression was induced using 50 nM of the provided non-immunosuppressive rapalog, AP21967 with an equal volume of ethanol used as the control vehicle. Forty eight hours after induction, the cells were trypsinized for adhesion experiments.
Experimental pressure conditions were controlled using an airtight box with inlet and outlet valves, thumb screws, a pressure gauge and an O-ring for an airtight (11, 25). The box was prewarmed to 37° C. for 1 hour to […] minimize temperature fluctuations experienced by the cells. The gas used for pressurization was a filtered 5% CO2/95% air mixture consistent with the atmosphere in which the cells were routinely cultured. The temperature was maintained within ±2° C. and the pressure within ±1.5 mmHg.
100,000 Caco-2 or CT-26 cells were seeded to collagen I coated 6-well plates under ambient or increased pressure conditions for 30 minutes. Non-adherent cells were washed away, and the remainder fixed with 0.01 M NaIO4, 0.75 M lysine, 0.0375 M sodium phosphate buffer, pH 7.4, and 2% paraformaldehyde on ice for 1 hour. The adherent cells were counted microscopically in at least 20 random high power fields per well under a fluorescent microscope. […]

Caco-2 cells = assay: Pressure-induced adhesion of Caco-2 cells transiently expressing GFP-FAK-NT1; assay type: cell-based, human; conditions: Caco-2, transient expression, vs GFP control
Description: Caco-2 cells were plated on p100 dishes at 30-35% confluence one day prior to transfection. The constructed or empty plasmids were transfected into Caco-2 cells at final concentrations of 2 μg/ml plasmid and 5 μg/ml Lipofectamine 2000. Five hours after transfection, the medium was replaced with 15 ml pre-warmed Caco-2 media without antibiotics. Forty eight hours after DNA transfection, the cells were trypsinized for adhesion or pull-down experiments.
Experimental pressure conditions were controlled using an airtight box with inlet and outlet valves, thumb screws, a pressure gauge and an O-ring for an airtight (11, 25). The box was prewarmed to 37° C. for 1 hour to […] minimize temperature fluctuations experienced by the cells. […]
100,000 Caco-2 or CT-26 cells were seeded to collagen I coated 6-well plates under ambient or increased pressure conditions for 30 minutes. […] The adherent cells were counted microscopically in at least 20 random high power fields per well under a fluorescent microscope.
To test whether this interaction of NT1 with Akt1 might have biological effects, we evaluated the effect of overexpressing NT1 in Caco-2 cells on the adhesive response to increased extracellular pressure, which requires FAK-Akt1 interaction. […]

T1 sequence (P31749 whole entry, the tested form may be a part): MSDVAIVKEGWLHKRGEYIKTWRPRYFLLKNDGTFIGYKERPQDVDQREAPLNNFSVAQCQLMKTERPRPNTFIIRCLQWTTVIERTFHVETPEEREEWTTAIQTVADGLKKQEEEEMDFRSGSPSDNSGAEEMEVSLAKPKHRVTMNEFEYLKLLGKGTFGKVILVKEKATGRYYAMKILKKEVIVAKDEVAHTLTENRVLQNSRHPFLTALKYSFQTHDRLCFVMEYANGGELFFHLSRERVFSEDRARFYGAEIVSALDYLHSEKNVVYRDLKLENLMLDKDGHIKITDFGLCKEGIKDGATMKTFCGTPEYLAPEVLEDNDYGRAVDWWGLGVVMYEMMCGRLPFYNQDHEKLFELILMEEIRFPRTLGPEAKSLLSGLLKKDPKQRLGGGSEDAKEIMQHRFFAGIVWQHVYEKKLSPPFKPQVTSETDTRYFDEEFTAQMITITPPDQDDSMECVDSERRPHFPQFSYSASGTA

Akt1 pulled down by GST-FAK truncations (Akt1 [1]): significantly more Akt1
B1: NT1-2: recombinant GST-FAK truncated peptide, residues 61-126 (protein, listed as Homo sapiens)
chain: ATDVRGIIQKIVDSHKVKNVACYGFRLSHLRSEEVHWLHVDMGVSSVREKYELAHPPEEWKYELRI
modifications: GST tag

Akt1 pulled down by GST-FAK truncations (Akt1 [1]): significantly more Akt1 | Akt1 pulled down by GST-FAK-NT1-conjugated Sepharose beads (Akt1 [1]; overnight incubation with either cell lysate or purified Akt1): pulled down Akt1
B4: NT1: recombinant GST-FAK truncated peptide, FAK residues 1-126 (SEQ ID NO:3) (protein)
chain: MAAAYLDPNLNHTPNSSTKTHLGTGMERSPGAMERVLKVFHYFESNSEPTTWASIIRHGDATDVRGIIQKIVDSHKVKNVACYGFRLSHLRSEEVHWLHVDMGVSSVREKYELAHPPEEWKYELRI
modifications: left off: large carriers

The next lines start with the molecule.

B2: HA-conjugated FRNK: HA-tagged FAK-related non-kinase, 67 kDa segment from the COOH-terminal region of FAK (protein)
chain: MESRRQATVSWDSGGSDEAPPKPSRPGYPSPRSSEGFYPSPQHMVQTNHYQVSGYPGSHGITAMAGSIYPGQASLLDQTDSWNHRPQEIAMWQPNVEDSTVLDLRGIGQVLPTHLMEERLIRQQQEMEEDQRWLEKEERFLKPDVRLSRGSIDREDGSLQGPIGNQHIYQPVGKPDPAAPPKKPPRPGAPGHLGSLASLSSPADSYNEGVKLQPQEISPPPTANLDRSNDKVYENVTGLVKAVIEMSSKIQPAPPEEYVPMVKEVGLALRTLLATVDETIPLLPASTHREIEMAQKLLNSDLGELINKMKLAQQYVMTSLQQEYKKQMLTAAHALAVDAKNLLDVIDQARLKMLGQTRPH
modifications: left off: small tags and cut ends
notes: HA-tagged FAK-related non-kinase, 67 kDa segment from the COOH-terminal region of FAK
HA-tagged protein in eluate after passage over GST-Akt1 beads (Western blot for HA) (Akt1 [2]): markedly reduced

B3: GFP-FAK-NT1: GFP fusion of FAK-NT1 (residues 1-126) expressed transiently or inducibly in cells (protein)
chain: B4 chain
modifications: left off: large carriers
notes: GFP fusion of FAK-NT1 (residues 1-126) expressed transiently or inducibly in cells
Stimulation of cell adhesion by increased pressure (CT-26 cells; CT26, expression induced 48 hours before, 15 mmHg 30 minutes, vs GFP control): prevented the stimulation of cell adhesion by increased pressure | Basal levels of adhesion (CT-26 cells; CT26, inducible expression): reduced | Pressure-induced adhesion (Caco-2 cells; 15 mmHg increased pressure 30 minutes): inhibited | Basal levels of adhesion (Caco-2 cells; ambient pressure): reduced

B5: HA-conjugated wild type FAK: HA-tagged wild type FAK expressed in Caco-2 cells (protein)
chain: MAAAYLDPNLNHTPNSSTKTHLGTGMERSPGAMERVLKVFHYFESNSEPTTWASIIRHGDATDVRGIIQKIVDSHKVKHVACYGFRLSHLRSEEVHWLHVDMGVSSVREKYELAHPPEEWKYELRIRYLPKGFLNQFTEDKPTLNFFYQQVKSDYMLEIADQVDQEIALKLGCLEIRRSYWEMRGNALEKKSNYEVLEKDVGLKRFFPKSLLDSVKAKTLRKLIQQTFRQFANLNREESILKFFEILSPVYRFDKECFKCALGSSWIISVELAIGPEEGISYLTDKGCNPTHLADFTQVQTIQYSNSEDKDRKGMLQLKIAGAPEPLTVTAPSLTIAENMADLIDGYCRLVNGTSQSFIIRPQKEGERALPSIPKLANSEKQGMRTHAVSVSETDDYAEIIDEEDTYTMPSTRDYEIQRERIELGRCIGEGQFGDVHQGIYMSPENPALAVAIKTCKNCTSDSVREKFLQEALTMRQFDHPHIVKLIGVITENPVWIIMELCTLGELRSFLQVRKYSLDLASLILYAYQLSTALAYLESKRFVHRDIAARNVLVSSNDCVKLGDFGLSRYMEDSTYYKASKGKLPIKWMAPESINFRRFTSASDVWMFGVCMWEILMHGVKPFQGVKNNDVIGRIENGERLPMPPNCPPTLYSLMTKCWAYDPSRRPRFTELKAQLSTILEEEKAQQEERMRMESRRQATVSWDSGGSDEAPPKPSRPGYPSPRSSEGFYPSPQHMVQTNHYQVSGYPGSHGITAMAGSIYPGQASLLDQTDSWNHRPQEIAMWQPNVEDSTVLDLRGIGQVLPTHLMEERLIRQQQEMEEDQRWLEKEERFLKPDVRLSRGSIDREDGSLQGPIGNQHIYQPVGKPDPAAPPKKPPRPGAPGHLGSLASLSSPADSYNEGVKLQPQEISPPPTANLDRSNDKVYENVTGLVKAVIEMSSKIQPAPPEEYVPMVKEVGLALRTLLATVDETIPLLPASTHREIEMAQKLLNSDLGELINKMKLAQQYVMTSLQQEYKKQMLTAAHALAVDAKNLLDVIDQARLKMLGQTRPH
modifications: left off: small tags and cut ends
notes: HA-tagged wild type FAK expressed in Caco-2 cells
HA-tagged protein in eluate after passage over GST-Akt1 beads (Western blot for HA) (Akt1 [2]): enriched
